{
  "source": "patent US20070276124A1",
  "key": {"[1]": {"molecular_target": "His6-Sep fusion protein from construct BspA-6xHis-Sep (Lactobacillus fermentum BR11)", "assay": "whole cell ELISA for the His6 epitope on L. fermentum cells with BspA-6xHis-Sep; parent BR11 cells gave 0.0168±0.0007"}, "[2]": {"molecular_target": "His6-Sep fusion protein from construct BspA-6xHis-Sep (Lactobacillus fermentum BR11)", "assay": "whole cell ELISA for the His6 epitope on L. fermentum cells with BspA-6xHis-Sep against parent BR11 cells"}},
  "data": [
    {"substance": "anti-His5 monoclonal antibody (Qiagen, Hilden, Germany)", "values": [
      {"measurement": "A450nm signal per OD600 nm unit of cells (A450nm per OD600 nm unit of cells)", "setting": "[1]", "value": 0.0302},
      {"measurement": "fold signal over L. fermentum BR11 parent cells", "setting": "[2]", "value": 1.8, "unit": "fold"}
    ]}
  ]
}
